The results in this text go back to patent publication US20230054860.

In the data set the target is WDR26 (endogenous) (UniProt Q9H7D7).
Sequence of UniProt Q9H7D7 (Q9H7D7 whole entry): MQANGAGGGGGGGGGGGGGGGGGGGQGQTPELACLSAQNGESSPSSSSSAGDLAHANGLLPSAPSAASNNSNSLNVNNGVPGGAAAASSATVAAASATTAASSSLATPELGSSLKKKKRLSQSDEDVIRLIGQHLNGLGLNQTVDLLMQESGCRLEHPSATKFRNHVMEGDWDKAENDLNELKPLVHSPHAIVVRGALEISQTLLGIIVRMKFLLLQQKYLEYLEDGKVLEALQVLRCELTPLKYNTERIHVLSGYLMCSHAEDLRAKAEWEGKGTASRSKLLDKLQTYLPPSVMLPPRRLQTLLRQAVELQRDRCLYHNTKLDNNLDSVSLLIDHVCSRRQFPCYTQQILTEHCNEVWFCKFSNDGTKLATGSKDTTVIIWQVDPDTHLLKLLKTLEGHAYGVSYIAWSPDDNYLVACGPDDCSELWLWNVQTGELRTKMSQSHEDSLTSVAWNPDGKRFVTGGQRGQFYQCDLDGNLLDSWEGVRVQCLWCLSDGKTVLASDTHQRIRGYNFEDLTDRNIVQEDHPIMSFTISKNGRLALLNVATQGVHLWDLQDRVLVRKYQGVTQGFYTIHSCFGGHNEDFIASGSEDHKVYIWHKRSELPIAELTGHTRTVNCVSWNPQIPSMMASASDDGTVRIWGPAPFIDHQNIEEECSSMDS

For the substance AKT (endogenous), the “AKT phosphorylation levels (pAKT S473, western blot)” value was “ultimately leading to a decrease in AKT phosphorylation levels”.
